T1: cynomolgus monkey FcγRIIa3 extracellular domain with C-terminal His-tag (cynomolgus monkey)
T1 construct: also called cyno FcgRIIa3; cynoFcγRIIa3; not shown: His-tag added to the C-terminus
T1 chain: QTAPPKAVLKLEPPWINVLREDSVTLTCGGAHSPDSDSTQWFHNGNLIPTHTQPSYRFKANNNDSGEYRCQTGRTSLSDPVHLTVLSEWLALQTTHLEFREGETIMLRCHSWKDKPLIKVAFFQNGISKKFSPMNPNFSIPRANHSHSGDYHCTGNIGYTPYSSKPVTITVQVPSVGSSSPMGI

T2: cynomolgus monkey FcγRIIb extracellular domain with C-terminal His-tag (cynomolgus monkey)
T2 construct: also called cyno FcgRIIb; cynoFcγRIIb; not shown: His-tag added to the C-terminus
T2 chain: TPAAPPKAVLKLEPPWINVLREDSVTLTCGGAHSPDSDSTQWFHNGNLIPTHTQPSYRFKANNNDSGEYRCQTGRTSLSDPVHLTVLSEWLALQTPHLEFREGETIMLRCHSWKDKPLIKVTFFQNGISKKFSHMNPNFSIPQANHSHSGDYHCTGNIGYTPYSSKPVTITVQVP

T3: human FcγRIIaR extracellular domain with C-terminal His-tag (human, UniProt P12318 34-217)
T3 construct: also called human FcgRIIaR; FcγRIIa type R; not shown: His-tag added to the C-terminus
T3 chain: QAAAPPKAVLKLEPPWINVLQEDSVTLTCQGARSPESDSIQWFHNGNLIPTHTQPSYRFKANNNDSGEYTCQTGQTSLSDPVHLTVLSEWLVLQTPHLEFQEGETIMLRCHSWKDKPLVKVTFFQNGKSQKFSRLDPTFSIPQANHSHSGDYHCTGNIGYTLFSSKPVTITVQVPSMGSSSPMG

T4: cynomolgus monkey FcγRIIb extracellular domain, His-tagged (cynomolgus monkey)
T4 construct: also called cyno FcγRIIb; cynoFcgRIIb
T4 chain: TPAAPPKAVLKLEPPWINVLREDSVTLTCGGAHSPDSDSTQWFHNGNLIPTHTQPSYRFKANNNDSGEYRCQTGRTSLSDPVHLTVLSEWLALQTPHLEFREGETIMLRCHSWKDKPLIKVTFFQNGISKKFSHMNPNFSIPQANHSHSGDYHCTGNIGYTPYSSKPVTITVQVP

T5: cynomolgus monkey FcγRIIIaS extracellular domain, His-tagged (cynomolgus monkey, UniProt Q8SPW2 21-206 at identity 1.00))
T5 construct: also called cyno FcγRIIIaS; cynoFcgRIIIaS
T5 chain: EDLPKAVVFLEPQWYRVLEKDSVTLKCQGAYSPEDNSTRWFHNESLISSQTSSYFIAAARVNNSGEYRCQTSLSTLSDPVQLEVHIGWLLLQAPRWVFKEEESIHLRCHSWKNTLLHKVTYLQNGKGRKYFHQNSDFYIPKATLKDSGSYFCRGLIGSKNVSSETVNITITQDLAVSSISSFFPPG

T6: human FcγRIIb extracellular domain with C-terminal His-tag (human, UniProt P31994 43-217)
T6 construct: also called human FcgRIIb; not shown: His-tag added to the C-terminus
T6 sequence: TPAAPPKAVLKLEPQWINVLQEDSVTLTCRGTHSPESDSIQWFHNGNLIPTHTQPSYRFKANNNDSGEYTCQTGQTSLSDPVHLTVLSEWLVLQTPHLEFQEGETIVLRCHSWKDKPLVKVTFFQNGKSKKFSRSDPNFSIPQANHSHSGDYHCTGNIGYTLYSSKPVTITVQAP


How the values were obtained:
[1] = target: T1, cynomolgus monkey FcγRIIa3 …; assay: SPR (BIACORE), antibody captured, FcgR analyte
[2] = target: T2, cynomolgus monkey FcγRIIb extracellular …; assay: SPR (BIACORE), antibody captured, FcgR analyte
[3] = target: T7, cynomolgus monkey FcγRIIIaS extracellular domain with C-terminal His-tag (cynomolgus monkey, UniProt A3RFZ7 21-206 (rhesus entry)); assay: SPR (BIACORE), antibody captured, FcgR analyte
T7 construct: also called cyno FcgRIIIaS; cynoFcγRIIIaS; not shown: His-tag added to the C-terminus

[4] = target: T3, human FcγRIIaR extracellular domain …; assay: SPR (BIACORE), antibody captured, FcgR analyte
[5] = target: T8, human FcγRIIIaV extracellular domain with C-terminal His-tag (human, UniProt P08637 17-208); assay: SPR (BIACORE), antibody captured, FcgR analyte
T8 construct: also called human FcgRIIIaV; not shown: His-tag added to the C-terminus

[6] = target: T4, cynomolgus monkey FcγRIIb extracellular …; assay: SPR (BIACORE), antibody captured, FcγR analyte, 25 C; KD of SG1 divided by KD of variant
Procedure: (§1) The kinetic analysis of interactions between these antibodies and FcγR was carried out using BIACORE® T200 or BIACORE® 4000 (GE Healthcare). HBS-EP+ (GE Healthcare) was used as the running buffer, and the measurement temperature was set to 25° C. […] After the measurement, the antibody captured on the chip was washed off by allowing reaction with 10 mM glycine-HCl, pH1.5 and 25 mM NaOH so that the chip was regenerated and used repeatedly. The sensorgrams obtained as measurement results were analyzed by the 1:1 Langmuir binding model using the BIACORE® Evaluation Software to calculate the binding rate constant ka (L/mol/s) and dissociation rate constant kd (1/s), and the dissociation constant KD (mol/L) was calculated from these values. […] Regarding such interactions, KD values were calculated using the following 1:1 binding model described in BIACORE® T100 Software Handbook BR1006-48 Edition AE.

[7] = target: T5, cynomolgus monkey FcγRIIIaS …; assay: as above
Procedure: as §1

[8] = target: T6, human FcγRIIb extracellular domain with …; assay: SPR (BIACORE), antibody captured, FcgR analyte

T8 sequence (P08637 17-208 F176V): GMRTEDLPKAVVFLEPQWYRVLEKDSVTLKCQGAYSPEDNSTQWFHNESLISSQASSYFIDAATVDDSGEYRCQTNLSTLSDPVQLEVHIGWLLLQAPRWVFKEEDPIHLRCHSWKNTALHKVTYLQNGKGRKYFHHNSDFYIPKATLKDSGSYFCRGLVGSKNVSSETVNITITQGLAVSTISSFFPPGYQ

Row | Kd [1] [nM] | Kd [2] [nM] | Kd [3] [nM] | Kd [4] [nM] | Kd [5] [nM] | KD fold (SG1 = 1) [6] [fold] | KD fold (SG1 = 1) [7] [fold] | Kd [8] [nM] | Binder
1 | 2300 | 280 | 2400 | 1400 | 31000 | – | – | – | M103205H795-MY210/M103202L889-SK1 (antibody, human IgG1, kappa, name in EU numbering, Fc variant of MS1032LO06-SG1; positions in EU numbering) heavy: QVTLKESGPVLVKPTETLTLTCTVSGIDLSHDDISWVRQAPGKGLEWVGIISYAGSTYYASWAKGRLTISKDTSKNQVVLTMTNMDPVDTATYYCARGVPAYSHGGDLWGQGTLVTVSSASTKGPSVFPLAPSSKSTSGGTAALGCLVKDYFPEPVTVSWNSGALTSGVHTFPAVLQSSGLYSLSSVVTVPSSSLGTQTYICNVNHKPSNTKVDKKVEPKSCDKTHTCPPCPAPELLNGPSVFLFPPKPKDTLMISRTPEVTCVVVDVSDEDPEVKFNWYVDGVEVHNAKTKPREEQYNSTYRVVSVLTVLHQDWLNGKEYKCKVSNTALPKPIEKTISKAKGQPREPQVYTLPPSREEMTKNQVSLTCLVKGFYPSDIAVEWESNGQPENNYKTTPPVLDSDGSFFLYSKLTVDKSRWQQGNVFSCSVMHEALHNHYTQKSLSLSP light: DIVMTQSPATLSLSPGERATLSCTSSQSVYHANWLSWFQQKPGQPPKLLIYWASTLAYGVPSRFSGSGSGTDFTLTISSLQPEDAATYYCAGGYGGGRYAFGQGTKVEIKRTVAAPSVFIFPPSDEQLKSGTASVVCLLNNFYPREAKVQWKVDNALQSGNSQESVTEQDSKDSTYSLSSTLTLSKADYEKHKVYACEVTHQGLSSPVTKSFNRGEC
2 | – | – | – | – | – | 1.3 | 0.2 | – | M103205H795-MY445/M103202L889-SK1 (antibody, human IgG1, kappa, name in EU numbering) heavy: QVTLKESGPVLVKPTETLTLTCTVSGIDLSHDDISWVRQAPGKGLEWVGIISYAGSTYYASWAKGRLTISKDTSKNQVVLTMTNMDPVDTATYYCARGVPAYSHGGDLWGQGTLVTVSSASTKGPSVFPLAPSSKSTSGGTAALGCLVKDYFPEPVTVSWNSGALTSGVHTFPAVLQSSGLYSLSSVVTVPSSSLGTQTYICNVNHKPSNTKVDKKVEPKSCDKTHTCPPCPAGELLTGPSVFLFPPKPKDTLMISRTPEVTCVVVDVSDEDPEVKFNWYVDGVEVHNAKTKPREEQYNSTYRVVSVLTVLHQDWLNGKEYKCKVSNKALPKPIEKTISKAKGQPREPQVYTLPPSREEMTKNQVSLTCLVKGFYPSDIAVEWESNGQPENNYKTTPPVLDSDGSFFLYSKLTVDKSRWQQGNVFSCSVMHEALHNHYTQKSLSLSP light: DIVMTQSPATLSLSPGERATLSCTSSQSVYHANWLSWFQQKPGQPPKLLIYWASTLAYGVPSRFSGSGSGTDFTLTISSLQPEDAATYYCAGGYGGGRYAFGQGTKVEIKRTVAAPSVFIFPPSDEQLKSGTASVVCLLNNFYPREAKVQWKVDNALQSGNSQESVTEQDSKDSTYSLSSTLTLSKADYEKHKVYACEVTHQGLSSPVTKSFNRGEC
3 | – | 1200 | 1.3 | – | – | – | – | 5100 | M103205H795-MY288/M103202L889-SK1 (antibody, human IgG1, kappa, name in EU numbering, Fc variant of MS1032LO06-SG1; positions in EU numbering) heavy: not shown light: DIVMTQSPATLSLSPGERATLSCTSSQSVYHANWLSWFQQKPGQPPKLLIYWASTLAYGVPSRFSGSGSGTDFTLTISSLQPEDAATYYCAGGYGGGRYAFGQGTKVEIKRTVAAPSVFIFPPSDEQLKSGTASVVCLLNNFYPREAKVQWKVDNALQSGNSQESVTEQDSKDSTYSLSSTLTLSKADYEKHKVYACEVTHQGLSSPVTKSFNRGEC
